The values that follow come from FireProtDB (doi:10.1110/ps.051460505).

“And” between values parts separate entries of the source, which are not always exact repeats. Equal values may be shown once.

Sequences and labels used below:
B1: Gamma-crystallin D, P07320 (parent)
chain: MGKITLYEDRGFQGRHYECSSDHPNLQPYLSRCNSARVDSGCWMLYEQPNYSGLQYFLRRGDYADHQQWMGLSDSVRSCRLIPHSGSHRIRLYEREDYRGQMIEFTEDCSCLQDRFRFNEIHSLNVLEGSWVLYELSNYRGRQYLLMPGDYRRYQDWGATNARVGSLRRVIDFS

The variants in the data set derive from B1. As to conditions: Homo sapiens; pH 7; 37 °C; GdnHCl; Fluorescence; Sodium phosphate 10 mM; transition: 3; structure 1HK0; whole UniProt chain shown.

Consider M147A, for which the “ddG of mutation (higher = less stable)” value was found to be 0 kcal/mol, the denaturant m value is 3.1 kcal/mol/M, the “denaturant midpoint (higher = more stable)” value (from here on “denaturant midpoint”) was 2.8 M and the unfolding free energy worked out at 8.9 kcal/mol.

For the variant R80A, the “ddG of mutation (higher = less stable)” value is 1 kcal/mol and 1.3 kcal/mol; the denaturant m value is 3.4 kcal/mol/M and 2.7 kcal/mol/M; the “denaturant midpoint” value was 1.8 M and 2.9 M; the unfolding free energy was 6.7 kcal/mol and 7.6 kcal/mol.

As to R80A M147A, the denaturant m value was 3.2 kcal/mol/M; the “denaturant midpoint” value is 1.7 M and 2.8 M; the unfolding free energy is 5.6 kcal/mol and 8.9 kcal/mol.

For Q55A, the denaturant m value is 3.8 kcal/mol/M and 3.4 kcal/mol/M; the “denaturant midpoint” value is 2 M and 2.9 M; the unfolding free energy is 7.5 kcal/mol and 9.6 kcal/mol.

On to Q55A Q143A, for which the denaturant m value was 3.5 kcal/mol/M and 3.1 kcal/mol/M; the “denaturant midpoint” value is 1.8 M and 3.1 M; the unfolding free energy is 6.3 kcal/mol and 9.6 kcal/mol.

Take Q143A: the denaturant m value was 3.8 kcal/mol/M and 3 kcal/mol/M; the “denaturant midpoint” value was 1.9 M and 3 M; the unfolding free energy was 7.2 kcal/mol and 9 kcal/mol.
